Test: soluble on expression in E. coli; label from the status in PepcDB or PDB records
In the case of “MAHHHHHHMKQRTNVALKRWYASERTKKANPLILISNSHNIHFNLSLENFLLNNYSDLLKHLNGNSIERYDDPVLFLWRNNRSIIIGKNQNIWSECNLENIKEDNVLVARRFTGGGAVYHDLQNLCFTFLNNSLSTDDNFSIILKTLKRHFAIEAKRQGRNDITVNDRKCSGSAFKKMKNGFLHHGTIMVNLEKDVLSRYLTPDKIKYTKHGVSSVNARTINLKEINPKITCQDLCYALIKEFQAFYKNGVPNEGGEASCSATLKVEDYTGGEKIANPPEQVSSNRNANLSEGEKSVANLIDHSSPILKHFNIHYVDTNESITKNPEFLKYLNLLKDWDWCYGKSPKFQNRLCKQFPFGKFEVFFNVSDGMIKDGNVFSDCLDINLVEQLKFIFNNDVRYSKDSVASFLRGLQVENEGSLREVTDWILQEL”, the “soluble on expression in E. coli” value is reported as “not soluble”.
In the case of “MAHHHHHHMLFPTACPDLIAREHLFNTLLNPVVYRWMWGRLRSCFSDSEVMAYTNNLSCVSHSVVCELVNKYPHLHQHVFAGPVTVLNERKEAAVTAHAEPLMVDPVGWTRALAEVCRRDYDVQFALGERLEDAVTYLKYDVESTRSIRVSKPDPSHPEQRLFASEGYDVVILAAGASTGTMTLPNSRLPVLGLSGLSAVVQQPSGALKDAVWSLFQCRPHRSPAAAASSSSPEVDAPSSHEGVADPLARPAPGTLALLSSHCSPVWLHVAQ”, the “soluble on expression in E. coli” value is reported as “soluble”.
With “MAHHHHHHMLHCSREEVGELLIDSCKRSVGTSVELDTLLSNKNTSKVAPDATAATIMQVRMMYGKDDSGDLSYAEMTRLVEGLSSSKDLTERILKPFEDDNRHTIAFSEFAKVYSNAVSFKELGYVFQDLAGGQQTISRDTFASFVCDIQDEDWDAETLNEKLALMGCVGIDGITENNFVGYIMSPYFDFAMEKKLTGVYQDMDQIMCCYFISSSHNTYLTGDQLTSKSSAQMYKKGASRRVPVREAICRNGPHGEPIVCHGYTRTSCIAFEECVKMIRQYAFTASAYLVILSLGVHTSVEQQDKMAEILEEGLGSLLFWPPWGSNEKPTMAFSPNNLKNKILVKAKRGDFPAREPRVDKDDDATETDSMASTNNADYLKMKEARRKAGKDEVRVSAKLSAIVSIESSKYQGVKDLSYLKDKQPHHCSSYSERKGKAIVREAHNALVCINDTCLSRVFPAGSRIDSSNYRPLLYWVSGCQMVAINWQSSDTFGWRLNGCIFLDSGCCGYLLKPDYLRPVTCPDVAVPEYLRSLTVEVIWGFALPSAKQARGCRPVCDSFPRGP” the “soluble on expression in E. coli” value was “not soluble”.
For “MAHHHHHHMLMVPMKFARAHLRRLHALQPTPTFAIECSLPFLCAWRAMKHRSLAPDDPFGERSTFSDPSDGLFAAWSGVDFNAFADAASSDEVRTAHFGPEWSRFATVGRLSVKIMREQGTPGVASAVSSKGGNKVLPRPPTAEELHSRELQARRKALEGNYATYEQYVMKELGIEDGGNEDEHMEEEMDDATEVANASEESMPLPHFMVERGEGQAHANDTNKQESTNGKPLLRTREGLQVPEPLMQMILDALGEPHGDRHLPRSDPLHWNTEVVILWVRKLEAARFALVSAAGTGEASLLEAPLMEDPSMHEAFRMARTNGKFLLHHTVPNTMFQVMRRWYLRRQEIALTFMKERQEMKNTTSISKDDVNDATFKSALEAGRAKLDELAAKVTPILIQETISQCYPYCH”, the “soluble on expression in E. coli” value was “not soluble”.
In the case of “MAHHHHHHMLNPTFSLYRKTLQSYPVPPKIRHYDRRWSGSRTNPYNRQYWRVIMNENYSRPSFWVSDFRHRYLMRTGTDYQGQVPSSPQPGLYQGFSDVHKLLANHPKPQRESRHLPVLPMTPRVVFEHANEKRIDTAKKMRRDRRRIEELKTLEFWGWYMKLQRVRGRWCREQGVSSRGVYGPAVDAAELWG”, the “soluble on expression in E. coli” value is reported as “not soluble”.
For “MAHHHHHHMLQSPKGINILITGTPGTGKTSLAELLAQELGDFKHVEVGKIVKENHFYSEYDNALDTHIVEEDDEDRLLDFMEPMMVNEGNHVVDYHSSELFPRRWFHLVIVLRASTEVLFERLTARRYSEQKRDENMEAEIQGLCEEEARGAYDDSIVIVRENNTLEEMAATVDLIRLRVESLRGNAA”, the “soluble on expression in E. coli” value was “not soluble”.
With “MAHHHHHHMLRRTSFNFTGRAMISRGSPEWSHRLDLKKGKKTTMMHKLGTSKPNNALQYAQMTLHDLTEWCLAYSPWPLTFGLACCAVEMMHAYASRYDLDRFGIVPRPTPRQAEIIIVSGTVTNKMAPILRNIYVQMVNPKWVISMGSCANGGGYYHFSYAVLRGCERAIPVDFWIPGCPPSAESLVFCLHTLQKKIRWHEIQKYSVRD” the “soluble on expression in E. coli” value was “not soluble”.
With “MAHHHHHHMLRRVTCMAASVGRAAAALSVSPVMAQIPSAMRPPSKASTSAVASLLPPCCQPIYQQRRCYASRSGEEKGNADKGTQAAAAAVSTTPGTATAEAVRYFAANEQNADAAARAQGSVKQQEQLSAAAANGGDAATSGIRTIGIKLTEDDELVRAFNNFSKSVNGCTQEEFLIGAKQAYYSLAVVISAFLEHGQPLAGRTESTKMIAAAHEAAKLLDKEFKPESRCDAAATSLASKAEGDGTDDSSSSSSKTKLQESLVRNVVSTIVSLIPVSRHLAESIFKIWLLHKVKQVNLSSIASPADYVLDSKLVIFARLGKARMYFNSDNVGAEVDVTFSNDYLRKLDPASVAGSGAAGSSQMADAAGKVDEDDFDTGMIQVHTDTDANAHRTTAEEHTFVVNKATRTLTPTGSTAASTAAAAAAASTDAARRSGGNSASAGAGGASAADSAKSSGTASRIQVTCVKTTDFLRKSASAATVAATAVRDEAAAKTAAPNESSGEEEEEAHSVYIKVNGNMLPPIPASAHACALLTVDVVVPPERYAYNFEWFYKRIVGYENEYERIAAARVFASNSPKPLASFLDFFMRMVTGKPVEFMFSKAIGRMIGIPDDVSQTPPATRKLMCMYMDQSYKWVLADLVTLAPVMETKLPKA” the “soluble on expression in E. coli” value was “not soluble”.
With “MAHHHHHHMLTIRVGNLPVCLCSNLRNTFNPTYAFGVKRNDGTVALLDGKSGHLLLPFDAEGNIIVTPGADYQLVFLSNDSTSSTVHTTQGLGKGGTNKTSHDFELTKALAKDGSIHREKRRLDDGRATSRERFHKGNAHYSVSDSKPTKRRKRDHSVDKDAVVEAEFGSQSINKKERSVKASRKDSNREDSDDPDDIPIFCTLAGKPTPAPISSNHTPTVSPAPKEVYLVDNFDPTTRPAHSEEGALDSSATELISS” the “soluble on expression in E. coli” value was “soluble”.
For “MAHHHHHHMLTRSERGMCNGRVPTKGLVGFLSGSSTGTEWRDEYLGVNAIVHGPAEKRIGVPNGVTFQGSWAEWPVGDMGQTVPYYFANNKFTLVATVSIHEVPKEDSSPIPLIGVRMNDTSSTVLFALSYTHDRKWLAIPEDAGGVEDLFGWEPHTTYQAVLRMTLDEWTAFVDQREIDRKSYNENLFDSHRISHFYIGGDSNDQSATDGHVTVTNVMLYNEDLYNNELYEPNASKVNIPSLGVEEHPTGQVTSTEVSVVHESKSEEITASCAELNEDDTDKQEEETASMIRCLQRPLPRLTRDHLFLSLPSQRRAQGMTVQRTMSSFTRAKRPSKPRRMKRINRCNGVQTCSHKTHSQRN”, the “soluble on expression in E. coli” value was “not soluble”.
With “MAHHHHHHMLTTYNIIWKKEEEDDSLNIEKRNRLFHEHVKEQKNDILSPSEFDLLVNDIEDLLEEQQINETEKLYKVSKSPNEKFNKKYKLSITDLSAQLWCEQQLELVLTTGKRRETEAMRLGIERHEILEKADHLIVNVEVNTREESLGYRLLNSITLLGQLFQTKKAREVWVFGIIRNYVLRGIIDELRIEYDNVTKKEYLIISDTKTRKEKKEPSLAQKRTSAIQVQTYCLILQQLKNGKADFKKLFEIYECDPLFEFTAVDLVKYKNLENLSIELNKLFMKLPKIKEEMEIVYEHEGKEFSRNLIPYFYHSTLYTINILLDYWDGKRSSDVVENSDKWKCKFCDFVKNCVRCPLDY” the “soluble on expression in E. coli” value was “not soluble”.
For “MAHHHHHHMLVRRSLSKKRSVIRGRNSRDLRVSSYIRVCTCTYVRNLCCRRLAYYDVCGESWSHARPFSPNSAMDYSLSVFRVLCPFVKTFFLFTLPCLTEGEGRVKSLIRWWEKKTCAEILMSSHAYLGLLRFICDLYTSFKGYVSRWHCPARRTAVLSCLSAAIGADGGVGPWLLLFVRAAVLRVLSLRQHPQTTQGEGRLARLVQPNQSGGHERHQQ”, the “soluble on expression in E. coli” value was “not soluble”.

Source: the DeepSol protein solubility set
